Test results published in US20030143208A1, “Oxidative stress-resistant cell lines and methods of use thereof” (priority 2002, published 2003).
Entries after “also recorded” stand apart in the source; their conditions may differ. Blank lines part the entries; values can stand above or below the compound they belong to.

Key:
[1] = system: TH in cultured dopaminergic neurons; conditions: cultured dopaminergic neurons after MPP+ challenge; Pong et al. (22); cited from earlier work
[2] = system: tyrosine hydroxylase (TH); test: Tyrosine hydroxylase activity assay ([3H]H2O release from [3H]tyrosine) of wt- and mutant-TH, with and without peroxynitrite treatment; assay type: biochemical, rat; conditions: nitrating and oxidizing concentrations of peroxynitrite, phosphate buffer 0.1 M, DTPA 0.1 mM, pH 7.4, FIG. 3A
Description: (§1) To further confirm the site of nitration in vivo, the tyrosine residues 423, 428, and 432 were individually mutated to Phe. The Tyr423Phe, Tyr428Phe, and Tyr432Phe mutants were created with the QuikChange™ Site-Directed mutagenesis kit from Stratagene as previously described (25). Wild-type rat TH cDNA (GenBank accession no.: NM-012740) was subcloned into the mammalian pcDNA3.1+ expression vector (invitrogen) and used as the DNA template (25 ng) to create the mutants. Complete DNA sequencing data verified the presence of the appropriate mutation in the coding sequences of all recombinant proteins.
(§2) Recombinant wt- and mutant TH were isolated and purified from BL21(DE3)pLysS E. coli expressing the full-length wt-TH, Y423F-TH, Y428F-TH, or Y432F-TH cDNAs. Following isolation enzyme activity was assayed after treatment with peroxynitrite as previously described (25 and 26). Briefly, wt- or mutant-TH were exposed to several concentrations of peroxynitrite under identical conditions, in phosphate buffer 0.1 M containing DTPA 0.1 mM at pH 7.4. The activity of TH was assayed by the release of [^3H]H2O from [^3H]tyrosine in the presence of catalase. The specific activity of the partially purified Tyr423Phe mutant TH was 20% of the wild type TH. It is also shown that the enzyme activity of the wild type, and the Tyr428Phe and Tyr432Phe mutants were inhibited by exposure to nitrating and oxidizing concentrations of peroxynitrite (FIG. 3A). […] Enzymatic activity was assessed using a standard assay and the Lovenberg assay as described in (26) (FIGS. 3B and 3C).

[3] = biological target: T1, tyrosine hydroxylase (TH) (Rattus norvegicus, UniProt P04177, Y423F); test: as above; assay type: biochemical
T1 construct: E. coli expressing the full-length wt-TH, Y423F-TH, Y428F-TH, or Y432F-TH cDNAs; made in house; host or cells: BL21(DE3)pLysS E. coli
Description: as §1, §2

[4] = biological target: tyrosine hydroxylase (TH) (Rattus norvegicus, UniProt P04177); test: Nitration of TH by peroxynitrite in vitro; assay type: biochemical; conditions: recombinantly purified TH treated with peroxynitrite in vitro
Source text: Cysteine, methionine, tryptophan and tyrosine appear to be the principal amino acids in proteins modified by peroxynitrite in vitro (9-14). To resolve the apparent differences, the reaction of peroxynitrite with recombinantly purified rat TH in vitro was re-examined and no evidence of cysteine oxidation was found. Oxidation of one cysteine residue per molecule of TH was observed only at high peroxynitrite concentrations, and three cysteine residues were oxidized in partially unfolded protein.

T1 sequence (P04177 2-498 Y423F): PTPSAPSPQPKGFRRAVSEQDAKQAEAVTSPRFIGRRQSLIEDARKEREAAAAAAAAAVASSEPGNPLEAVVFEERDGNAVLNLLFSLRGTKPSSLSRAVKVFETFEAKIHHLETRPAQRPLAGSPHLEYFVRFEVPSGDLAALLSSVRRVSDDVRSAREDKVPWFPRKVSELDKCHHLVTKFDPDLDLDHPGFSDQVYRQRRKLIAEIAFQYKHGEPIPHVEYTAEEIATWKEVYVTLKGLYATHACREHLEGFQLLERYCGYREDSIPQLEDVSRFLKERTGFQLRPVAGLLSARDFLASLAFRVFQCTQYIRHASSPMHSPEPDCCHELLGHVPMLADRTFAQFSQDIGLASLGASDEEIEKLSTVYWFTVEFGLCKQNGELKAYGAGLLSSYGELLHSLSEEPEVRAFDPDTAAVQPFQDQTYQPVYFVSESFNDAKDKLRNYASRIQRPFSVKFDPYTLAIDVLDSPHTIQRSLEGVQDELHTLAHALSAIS
Chain of tyrosine hydroxylase (TH) (Rattus norvegicus, UniProt P04177) (P04177 whole entry): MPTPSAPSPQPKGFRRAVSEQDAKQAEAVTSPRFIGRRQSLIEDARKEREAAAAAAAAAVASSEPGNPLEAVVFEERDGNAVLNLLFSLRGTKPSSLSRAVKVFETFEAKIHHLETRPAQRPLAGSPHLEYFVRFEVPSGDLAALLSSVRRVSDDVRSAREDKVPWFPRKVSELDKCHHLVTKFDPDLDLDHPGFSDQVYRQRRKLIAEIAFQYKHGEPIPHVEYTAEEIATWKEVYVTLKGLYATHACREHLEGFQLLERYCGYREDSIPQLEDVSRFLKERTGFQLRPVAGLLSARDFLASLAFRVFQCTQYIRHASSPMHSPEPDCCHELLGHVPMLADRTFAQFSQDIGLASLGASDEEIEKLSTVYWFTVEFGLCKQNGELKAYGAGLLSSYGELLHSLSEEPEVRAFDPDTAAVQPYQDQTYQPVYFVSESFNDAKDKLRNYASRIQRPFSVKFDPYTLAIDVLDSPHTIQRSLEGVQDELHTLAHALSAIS

Compound: COc1cccc(C=NCCN=Cc2cccc(OC)c2[O-])c1[O-].[Cl-].[Mn+3] [EUK134]
nitration of TH [1]: prevented nitration of TH

Compound: wild type: recombinant wild-type rat tyrosine hydroxylase (GenBank accession no. NM-012740) [reference compound]
TH enzymatic activity after exposure to peroxynitrite [2]: inhibited

resistance to inactivation by different concentrations of peroxynitrite compared to wild type TH, Lovenberg assay ([3]; cell lysates, Lovenberg assay, FIG. 3C): resist inactivation
resistance to inactivation by different concentrations of peroxynitrite compared to wild type TH ([3]; cell lysates, standard assay, FIG. 3B): resist inactivation
nitration by peroxynitrite [4]: lack of nitration
Compound: Tyr423Phe mutant TH: rat tyrosine hydroxylase in which Tyr423 was substituted with Phe
specific activity relative to wild type TH ([3]; partially purified protein, % of the wild type TH): 20%
TH enzymatic activity after exposure to peroxynitrite ([2]; listed as Tyr423 Phe mutant): no significant loss of enzymatic activity
TH enzymatic activity after exposure to peroxynitrite ([2]; listed as Tyr423Phe mutant): no loss in TH enzymatic activity; also recorded: unaffected

Compound: Tyr432Phe: rat tyrosine hydroxylase mutant with tyrosine residue 432 mutated to Phe
TH enzymatic activity after exposure to peroxynitrite [2]: inhibited

Compound: Tyr428Phe: rat tyrosine hydroxylase mutant with tyrosine residue 428 mutated to Phe
TH enzymatic activity after exposure to peroxynitrite [2]: inhibited
